We go through five molecules from paper PMC9583931, “Emerin interacts with histone methyltransferases to regulate repressive chromatin at the nuclear periphery” (Frontiers in Cell and Developmental Biology, 2022).

B1: EZH2 (enzyme)
chain: not shown
notes: EZH2, endogenous protein of mouse myogenic progenitors; also called catalytic component of PRC2; source: endogenous, mouse myogenic progenitors, in lysate (soluble fraction)
B2: emerin S54F (EDMD1 mutant) (natural protein, UniProt P50402 1-254, looked up)
chain: MDNYADLSDTELTTLLRRYNIPHGPVVGSTRRLYEKKIFEYETQRRRLSPPSSFAASSYSFSDLNSTRGDADMYDLPKKEDALLYQSKGYNDDYYEESYFTTRTYGEPESAGPSRAVRQSVTSFPDADAFHHQVHDDDLLSSSEEECKDRERPMYGRDSAYQSITHYRPVSASRSSLDLSYYPTSSSTSFMSSSSSSSSWLTRRAIRPENRAPGAGLGQDRQVPLWGQLLLFLVFVIVLFFIYHFMQAEEGNPF
notes: emerin with the EDMD1-causing mutation S54F; also called S54F emerin
B3: emerin Q133H (EDMD1 mutant) (natural protein, UniProt P50402 1-254, looked up)
chain: MDNYADLSDTELTTLLRRYNIPHGPVVGSTRRLYEKKIFEYETQRRRLSPPSSSAASSYSFSDLNSTRGDADMYDLPKKEDALLYQSKGYNDDYYEESYFTTRTYGEPESAGPSRAVRQSVTSFPDADAFHHHVHDDDLLSSSEEECKDRERPMYGRDSAYQSITHYRPVSASRSSLDLSYYPTSSSTSFMSSSSSSSSWLTRRAIRPENRAPGAGLGQDRQVPLWGQLLLFLVFVIVLFFIYHFMQAEEGNPF
notes: emerin with the EDMD1-causing mutation Q133H; also called Q133H emerin
B4: emerin (endogenous, wildtype myogenic progenitors) (natural protein, UniProt O08579 1-259, looked up)
chain: MDDYAVLSDTELAAVLRQYNIPHGPIVGSTRKLYEKKIFEYETQRRRLLPPNSSSSSFSYQFSDLDSAAVDSDMYDLPKKEDALLYQSKDYNDDYYEESYLTTKTYGEPESVGMSKSFRQPGTSLVDADTFHHQVRDDIFSSLEEEGKDRERLIYGQDSAYQSIAHYRPISNVSRSSLGLSYYPTSSTSSVSSSSSSPSSWLTRRAIRPEKQAPAAALGQDRQVPLWGQLLLFLVFAAFLLFVYYSIQAEEGNPFWMDP
notes: emerin, endogenous protein of H2K wildtype mouse myogenic progenitors; also called wildtype emerin; endogenous emerin; source: endogenous, H2K wildtype mouse myogenic progenitors, in lysate (soluble fraction)
B5: euchromatic histone lysine methyltransferase 2 (G9a) (enzyme, UniProt Q9Z148 1-1263, looked up)
chain: MRGLPRGRGLMRARGRGRAAPTGGRGRGRGGAHRGRGRPRSLLSLPRAQASWAPQLPAGLTGPPVPCLPSQGEAPAEMGALLLEKEPRGAAERVHSSLGDTPQSEETLPKANPDSLEPAGPSSPASVTVTVGDEGADTPVGAASLIGDEPESLEGDGGRIVLGHATKSFPSSPSKGGACPSRAKMSMTGAGKSPPSVQSLAMRLLSMPGAQGAATAGPEPSPATTAAQEGQPKVHRARKTMSKPSNGQPPIPEKRPPEVQHFRMSDDMHLGKVTSDVAKRRKLNSGSLSEDLGSAGGSGDIILEKGEPRPLEEWETVVGDDFSLYYDAYSVDERVDSDSKSEVEALAEQLSEEEEEEEEEEEEEEEEEEEEEEEEEDEESGNQSDRSGSSGRRKAKKKWRKDSPWVKPSRKRRKREPPRAKEPRGVNGVGSSGPSEYMEVPLGSLELPSEGTLSPNHAGVSNDTSSLETERGFEELPLCSCRMEAPKIDRISERAGHKCMATESVDGELLGCNAAILKRETMRPSSRVALMVLCEAHRARMVKHHCCPGCGYFCTAGTFLECHPDFRVAHRFHKACVSQLNGMVFCPHCGEDASEAQEVTIPRGDGGTPPIGTAAPALPPLAHDAPGRADTSQPSARMRGHGEPRRPPCDPLADTIDSSGPSLTLPNGGCLSAVGLPPGPGREALEKALVIQESERRKKLRFHPRQLYLSVKQGELQKVILMLLDNLDPNFQSDQQSKRTPLHAAAQKGSVEICHVLLQAGANINAVDKQQRTPLMEAVVNNHLEVARYMVQLGGCVYSKEEDGSTCLHHAAKIGNLEMVSLLLSTGQVDVNAQDSGGWTPIIWAAEHKHIDVIRMLLTRGADVTLTDNEENICLHWASFTGSAAIAEVLLNAQCDLHAVNYHGDTPLHIAARESYHDCVLLFLSRGANPELRNKEGDTAWDLTPERSDVWFALQLNRKLRLGVGNRAVRTEKIICRDVARGYENVPIPCVNGVDGEPCPEDYKYISENCETSTMNIDRNITHLQHCTCVDDCSSSNCLCGQLSIRCWYDKDGRLLQEFNKIEPPLIFECNQACSCWRSCKNRVVQSGIKVRLQLYRTAKMGWGVRALQTIPQGTFICEYVGELISDAEADVREDDSYLFDLDNKDGEVYCIDARYYGNISRFINHLCDPNIIPVRVFMLHQDLRFPRIAFFSSRDIRTGEELGFDYGDRFWDIKSKYFTCQCGSEKCKHSAEAIALEQSRLARLDPHPELLPDLSSLPPINT
notes: G9a (EHMT2), endogenous protein of mouse myogenic progenitors; also called EHMT2; source: endogenous, mouse myogenic progenitors, in lysate (soluble fraction)

Common to all, as to conditions: partners not purified
In assay [1] the target is B4. Briefly: co-IP; anti-emerin antibody on protein G magnetic beads, incubated overnight with the soluble fraction of sonicated whole-cell lysates (modified NEHN buffer, 500 mM NaCl, 1% NP-40) of proliferating myogenic progenitors; blot for G9a or EZH2; densitometry, ratio of bound to input.
The target of assay [2] is B3. Described as above.
Assay [3] has as its target B2. The assay is described as above.
The assay “EZH2” addresses B1. The assay is described as follows: co-IP; anti-EZH2 antibody on protein G magnetic beads, incubated overnight with the soluble fraction of sonicated whole-cell lysates (modified NEHN buffer, 500 mM NaCl, 1% NP-40) of proliferating myogenic progenitors; blot for emerin; densitometry, ratio of bound to input.
The target of assay [4] is B5. The assay is described as follows: co-IP; anti-G9a antibody on protein G magnetic beads, incubated overnight with the soluble fraction of sonicated whole-cell lysates (modified NEHN buffer, 500 mM NaCl, 1% NP-40) of proliferating myogenic progenitors; blot for emerin; densitometry, ratio of bound to input.

Sequence of EZH2 (Q61188 whole entry): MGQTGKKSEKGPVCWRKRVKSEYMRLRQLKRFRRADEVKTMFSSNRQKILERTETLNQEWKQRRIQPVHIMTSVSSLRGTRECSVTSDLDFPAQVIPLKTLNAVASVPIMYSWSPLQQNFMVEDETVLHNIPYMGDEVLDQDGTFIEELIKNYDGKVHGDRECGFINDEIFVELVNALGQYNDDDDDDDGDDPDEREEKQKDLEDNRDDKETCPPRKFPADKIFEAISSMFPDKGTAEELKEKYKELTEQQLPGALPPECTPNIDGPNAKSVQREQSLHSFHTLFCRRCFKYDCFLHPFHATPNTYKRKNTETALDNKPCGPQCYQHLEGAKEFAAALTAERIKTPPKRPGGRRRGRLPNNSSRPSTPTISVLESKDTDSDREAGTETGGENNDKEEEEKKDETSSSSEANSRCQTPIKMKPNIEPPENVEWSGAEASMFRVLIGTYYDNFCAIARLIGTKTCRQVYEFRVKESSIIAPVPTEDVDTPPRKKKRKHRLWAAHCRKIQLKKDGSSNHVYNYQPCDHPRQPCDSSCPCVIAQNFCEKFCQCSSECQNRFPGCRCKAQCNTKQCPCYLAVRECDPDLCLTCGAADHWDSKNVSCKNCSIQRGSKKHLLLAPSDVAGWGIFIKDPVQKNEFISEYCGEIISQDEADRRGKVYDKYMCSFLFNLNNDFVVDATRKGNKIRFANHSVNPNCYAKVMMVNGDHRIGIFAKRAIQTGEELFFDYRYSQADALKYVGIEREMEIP

B1: the “percent of input bound” value turned out to be 2.4% in assay [1], 89.4% in assay [2] and 57.9% in assay [3].
B2: the “percent of input bound” value with EZH2 was 71.8%; in assay [4], 80.9 % of input.
In the case of B3, the “percent of input bound” value was 77.8% with EZH2 and 45.1 % of input in assay [4].
Take B4: the “percent of input bound” value with EZH2 was 0.7%; in assay [4], 0.76 % of input.
As for B5, the entries for the “percent of input bound” value in assay [1], in assay [2] and in assay [3] were 0.2%, 9.6% and 13.8%, respectively.
